Data published in US20260092093A1.

Experiments:
[1] = biological target: T1, hIL-18 receptor (hIL-18Rα and hIL-18Rβ) (human) (UniProt Q13478); assay: cell-based or functional assay
T1 sequence (looked up) 1: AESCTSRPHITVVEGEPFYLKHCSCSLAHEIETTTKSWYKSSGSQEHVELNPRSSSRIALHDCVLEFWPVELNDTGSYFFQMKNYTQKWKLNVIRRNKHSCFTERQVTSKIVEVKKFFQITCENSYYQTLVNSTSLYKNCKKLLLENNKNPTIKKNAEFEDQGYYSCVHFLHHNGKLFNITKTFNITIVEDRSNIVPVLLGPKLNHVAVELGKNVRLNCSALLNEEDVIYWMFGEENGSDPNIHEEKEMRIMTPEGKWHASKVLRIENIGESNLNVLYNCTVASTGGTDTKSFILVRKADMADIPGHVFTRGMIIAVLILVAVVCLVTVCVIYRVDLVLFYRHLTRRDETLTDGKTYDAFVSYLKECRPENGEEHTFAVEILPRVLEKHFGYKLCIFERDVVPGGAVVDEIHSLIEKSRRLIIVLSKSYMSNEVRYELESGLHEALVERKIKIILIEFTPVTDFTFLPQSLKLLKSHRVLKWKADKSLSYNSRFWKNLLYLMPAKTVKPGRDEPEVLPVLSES
T1 sequence (looked up) 2: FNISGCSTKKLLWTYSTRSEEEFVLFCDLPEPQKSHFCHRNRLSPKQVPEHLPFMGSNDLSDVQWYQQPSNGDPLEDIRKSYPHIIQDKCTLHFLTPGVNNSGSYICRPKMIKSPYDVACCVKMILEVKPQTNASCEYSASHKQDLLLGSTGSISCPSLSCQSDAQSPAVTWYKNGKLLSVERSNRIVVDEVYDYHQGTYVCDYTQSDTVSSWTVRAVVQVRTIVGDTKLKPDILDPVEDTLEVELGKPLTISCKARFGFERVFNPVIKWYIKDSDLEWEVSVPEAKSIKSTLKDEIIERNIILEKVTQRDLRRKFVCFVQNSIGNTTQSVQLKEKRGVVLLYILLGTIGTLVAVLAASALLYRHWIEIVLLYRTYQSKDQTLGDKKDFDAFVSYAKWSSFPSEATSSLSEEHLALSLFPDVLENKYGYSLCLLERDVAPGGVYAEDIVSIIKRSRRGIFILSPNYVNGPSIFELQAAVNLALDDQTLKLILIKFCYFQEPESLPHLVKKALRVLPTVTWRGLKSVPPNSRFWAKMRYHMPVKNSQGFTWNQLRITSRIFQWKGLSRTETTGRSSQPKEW

[2] = biological target: hIL-18BP-hFc (human) (UniProt O95998); assay: cell-based or functional assay
hIL-18BP-hFc (human), sequence (O95998 31-194 limits assumed): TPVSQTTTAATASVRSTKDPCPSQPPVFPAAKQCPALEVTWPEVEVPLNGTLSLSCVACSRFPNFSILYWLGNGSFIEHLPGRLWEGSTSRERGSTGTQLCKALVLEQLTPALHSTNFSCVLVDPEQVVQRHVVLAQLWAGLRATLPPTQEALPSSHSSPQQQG

wild-type human IL-18, sequence (Q14116 37-193 limits assumed): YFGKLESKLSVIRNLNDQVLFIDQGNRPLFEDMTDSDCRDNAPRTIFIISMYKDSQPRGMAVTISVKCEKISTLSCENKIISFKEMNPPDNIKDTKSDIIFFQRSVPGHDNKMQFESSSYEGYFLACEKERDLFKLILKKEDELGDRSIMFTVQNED

EC50 (nM), PBMC assay (hIFNγ release) [1]: 0.17 nM | EC50 (nM), in vitro IL-18 Receptor Mediated Signaling Assay [1]: 0.066 nM | EC50 (nM) + 1 µg/ml hIL-18BP-hFc, in vitro IL-18 Receptor Mediated Signaling Assay [2]: 8.2 nM | EC50 (nM) in the Presence of 1 µg/mL hIL-18BP-hFc, PBMC assay (hIFNγ release) [2]: 5.9 nM | EC50 Fold Change (+BP/-BP), PBMC assay (hIFNγ release) [2]: 34.7 fold | EC50 Fold Change (+BP/-BP), hIL-18 reporter assay [2]: 83.3 fold
Substance: wild-type human IL-18 (from UniProt Q14116 37-193) (ligand)
